Results from the supplement of paper PMC12764529.
± gives the half width of the 95% confidence interval.

Test: folding stability dG unfold from chymotrypsin proteolysis; higher = more stable
Procedure, shortened: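 Designed mini-proteins (under 80 residues, no cysteine) in a PA-tagged cDNA display construct were digested with trypsin and chymotrypsin. Each protease was used at 11 concentrations (threefold dilutions) plus a no-protease condition, followed by sequencing. K50 was inferred by Bayesian fitting of sequencing counts, and unfolding free energy was derived against a sequence-predicted unfolded-state K50 and a shared folded-state K50, per protease or combined. Only designs with AlphaFold2 dimer inter-PAE above 15 were kept.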

Sequence	folding stability dG unfold [kcal/mol]
SAGGSAGGKTIEITIKLEDGKELKIKIDSPEELDKITSVELIGPGKIKITVNGKTIEITIKPKPSAGGSAGG [r6_206_TrROS_Hall]	2.77 ± 0.072
SAGGSAGGSAGPVPKTITVTVSSPEEAEAAVKEIKPKYPNVKVERKKVGDKIVLTITVEESAGGSAGGSAGG [r17_319_JUSTAS]	1.88 ± 0.093
SAGKITITVEKNEDGELTVTIRIEKDGKPIEEITFESEEEALEAAKKLAEELKKKYPDLKIEVEIVPRPSAG [r5_383_TrROS_Hall]	2.65 ± 0.22
SAGGSAGGSASLSPEKKVTIKTTVPQPTPPAVTTTLTGQFPSSLTLEELAEKDPNATVSITGSAGGSAGGSA [r18_279_JUSTAS]	1.36 ± 0.014
SAGGSAGGGDLVVYRLEVRRFEPGTGRLVETRSRTVVVPKEDLPELLERIPPGYEVLRIEAFPESAGGSAGG [r6_776_TrMRF]	0.361 ± 0.16
SVVLDVPYENRPDLLATIRALVAEKAPPVVVFVEAPEAERARLRRELEALGFTVEPTPVPNRYRITFRPASA [r9_600_TrMRF]	3.07 ± 0.058
SAGGSAGGSKIEITVKTKEELLEAIRKLAEEKGYEIVSIKIEKLPDGTYKVTIEIRKNDPLLKSAGGSAGGS [r12_647_TrROS_Hall]	2.79 ± 0.076
SAMEINIVLVAPPESPEALELAKEVAELVAKEIEEEGIPVEVEVEKIEFFRLPDGSIVVLIPIKVKPPESAG [r14_48_TrMRF]	3.27 ± 0.074
SAGGSAGGSAGEPEYVRVRIRVRRRVRNKETGKWEEKEVELTLVFPSKEEALKALEELGLSAGGSAGGSAGG [r11_984_TrROS_Hall]	4.049 ± 0.037
SAGGSAGGSAGGMPIPVTITVSDPATGTTKVVKTVLVTSPEKLEEVISKLPEGKKYTVVESAGGSAGGSAGG [r7_307_JUSTAS]	-0.224 ± 0.22
SAGKSIKILITTEKEEEAKKLAEEIKKELPKLGYKVEVYIMPKEEFEKFLKEFVVPEPDGKLVKVDLSSAGG [r19_187_TrMRF]	2.09 ± 0.1
SAGGTVTLTLELTVKVKRKDGKTETKKVTLTITVEVKEGETVYTPDGKKIKPGKSAEELAKELLKKLSAGGS [r16_440_TrROS_Hall]	1.28 ± 0.12
SASPRTITVPVTRFPDGTVRFTIETPDKTITLTFPPSATFEEALEKLSPDPDKKITLVEKDPTTVTVAESAG [r14_404_JUSTAS]	0.852 ± 0.16
SAGGSAGGSAGKKTVVIKDAEIVEVEEENGYLKVRIKVTNPDGSEEEFTFTFKPGDVIELSAGGSAGGSAGG [r11_211_TrROS_Hall]	3.11 ± 0.059
SAGGKNVKKYVPIEIEIEAPSPEVAEATAEEIEKIIREKFPGAKVEVEMEPLPDGGYKLKVKVYVPVGSAGG [r13_17_TrMRF]	3.47 ± 0.059
SAGGSASPVLTTVTFPGSPEELEAYAAEVRAAGTLLSVSFSPSPDPSYYTITLQVRAPDGTYFTAESAGGSA [r15_177_JUSTAS]	1.55 ± 0.083
SAGPFILVKFVTPDGRPLYYVIEIPESEEPEKLTLEQALEVAEAIAKALASKGGFEVKEVKIVSPEEFSAGG [r19_27_TrMRF]	3.802 ± 0.023
SKKVEIKIKVERNEDGYLTVTIEIRAETEEELLEAAKELAKALFPEDVEIRVEKLPDGTVKITIVVKLPPSA [r9_646_TrROS_Hall]	1.9 ± 0.11
SKGKKTVTINFMLKVEDPEDLPPGQEVKIPPEFIDFLRDQGFKITEIKIRVVPPPDGDVYVMFSSTIEVDSA [r9_465_TrROS]	3.53 ± 0.1
SAGGSAGGSAGGSPNPLLPPVRPKVILKDPKTGTTKTFTTEEEAKKAVESGEYTVLKIESAGGSAGGSAGGS [r10_520_JUSTAS]	0.353 ± 0.11
SAGKKKKITIEIVIKPKTLEELENKIKEIAKKLGLKKIEKIEIVKIEKDKNGKIKKVVIKITLTEEALKSAG [r5_575_TrROS_Hall]	3.25 ± 0.24
SAGGSAGGSASNVKILGLVSVDPETGLVRLAAYDPETGKVLYFIAPNADGEPLLLEVEENPGSAGGSAGGSA [r18_296_TrMRF]	2.44 ± 0.056
SAGGSAGGSAGGPKVFKFKDKIIVIYPNKKPNEEVKVVVKNPKTGKKEEFKIKIPKELLKSAGGSAGGSAGG [r7_834_TrMRF]	1.11 ± 0.13
SAGGSAGGSKLEEILKKLPPNAKITIEKDEETNVYTITITNKNGEKYTFTFSKEEVKKLLEKLSAGGSAGGS [r12_174_TrROS_Hall]	4.76 ± 0.24
SAGGSAGGSGLPIVVQEDGTLVLRREGDGTAAFDVVPLEEFERLPEEFLESLPASALPDPLPLSAGGSAGGS [r12_793_JUSTAS]	1.41 ± 0.11
SAGPIKELLEFLKANPDAVVEFEFTLPNGAKVKIKAKKFPDAVVLEVTTIDPNNKKPITGTITIPLPESAGG [r19_143_TrMRF]	3.49 ± 0.072
SAGGSAMREIRVGDTVVRILSIDPSTGEVHIAVREDLPPETIEAARRALEEAGLRFRVEPVPEELLSAGGSA [r15_570_TrMRF]	2.33 ± 0.028
SAGGSAGGSKKPVLAKIAILNSGSPEVAEELAKRLAAELGLSPDEVKVELHVIPVTAPGELLFSAGGSAGGS [r12_1066_TrMRF]	0.328 ± 0.063
SAGGMKFELVARFDSKEAAEKAVEELVRELFPDFDVEVEVEVIEDPETGTFLAIATITLPLPGPEDLSAGGS [r8_17_TrMRF]	4.18 ± 0.19
SAGGPKVVRIRYTMPPDQARDFIEELFGRPMSADDIADKLPPGFKVGIRAHPNPNGHVTFEIWIKLPDSAGG [r13_869_TrROS]	3.068 ± 0.021
